Measured values: the domain aggregation screens of Martell et al. (2025)

Test: soluble fraction after stress (log2 fold change); higher = more stays soluble; pooled small domains, quantitative proteomics
Settings: stress: 50 degC
In short: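 Each library was heated to 50°C as a stress step. The libraries, made up of small protein domains, were pooled and analysed at high throughput by quantitative proteomics. The reported value is the base-two logarithm of the fold change in each protein's soluble amount after stress, taken as a measure of aggregation propensity. The higher the value, the more protein stays in solution.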

| Sequence | soluble fraction (log2) |
| --- | --- |
| HMKQIEEIIARYTNENTPLMMILSDVQREYGYIPLDVQELISEKTGIPVAEIYGVVTFYSFFSL | -0.572 |
| HMGKDTLKLKKNAIPYDENGKKLTNLGYSYIKKTTVLNYYGTKIINGSTYYFLGDGVYIKAANVGTTSH | -2.23 |
| HMGRPWRIGDVVNVSRPTGDGGGFTKGLITRIYPTTVQVTWNPDLQHARPWTTMEKKQYLIFVYHDDE | -2.86 |
| HMDLRIIKTKKAIKTAFLNLLKENKYHNITISAISETALINRKTFYAHYETKDELYADVIEDALRVLSP | 0.0478 |
| HMKANIGDQVFTQLKDQIINGEWRPGDRIPSEAQLIQLFGVSRGTVRQAVQKLAGEGLIVTRHGEGSFVQG | 0.096 |
| HMNKITIEEAKSIALKHSNLDESQVSFIRSEYDFDNGIEKYEIEFYYNNNKYEYEINAKTGDIISYDYDI | -0.292 |
| HMTLDDSIALGRSLLDKGLMDFGTNLANLAEDKLRDFLSQQRYENLDDLFADIARGNRLPMFTAQQLLS | -0.187 |
| HMGDPMAIMQLSSNTTPEYWEAYQKYHIQEYEQSNFIRYVNGISVLDDDFVDKVLITIDQHGRIFSELKS | -2.41 |
| HMADTIEVVVQVNGKVRAKISTSPEVFADSTKLQELALADANVQKFIAGQTIRKVIIPKGTKLLNIV | -0.227 |
| HMLISAESVKRRLEMIRHLILLGDYEDVTAQVIKLNPAANEYKLTPIIEELNGGKYQEALEKINSYLSKF | 0.0802 |
| HMFINTVELGRAIKRRREELGLSLRDVADVTNVSASTLSRIENGTGKPDADNIARLTGWLDMPIDRVM | -0.0139 |
| HMNSIDIENELVKIIEKNGQPMSFDDLVFKLDSLYSTRYKFAKGYIRTIILNSNRIASIGKTSTYSLYKWN | -2.25 |
| HMPLTRSDVKRIQLWLMAHGYDIGSPDGVFGDKSNRAANAFLSQQGRSLETVTLGKLYDILEAN | -2.01 |
| HMDINVDILPLLKTMTDTLRKVIELDIPFLKDARVQRVNSLDELLLRADITTAEKFRKVFEAYQIEADFGK | -0.804 |
| HMNEKLNEYLNQVKAYLNTSDNKEDIIKELEAVVLEKAEKKYGQITDESISKILSEFGSPAEVAKEYS | 0.129 |
| HMADLKRLNEQIHYLGQYLSTKATYKEFLQANNKKIYRSEHQDEIAKYEEAAQFLKRSSPDGTIPTMKDLR | -0.0887 |
| HMEEKNNIIVSYIEDKISELEKASMYVPNENKEKLIMAFKNRNEDIDVIKTRIDTIFNNSVAAYKENME | 0.21 |
| HMEDVDTAALEKVIATAKGLNKNDYTATTWTTMQAALTNAEKALEAKKSQTSVDEAAKTLQAAIDGLKKAS | 0.215 |
| HMSILSRREHEIMQWVKGGKTNIEIAQILGISARTVRNHLQNVFRKLDVINRAQAVFEVERRR | -2.15 |

| Sequence | soluble fraction (log2) |
| --- | --- |
| HMYEDSNQSLNFFAIKFIKEKNIKISQETTNLIVERARGDRGNLINELQKLEALSLTRKKITQEDVFNLTN | -0.774 |
| HMADKHVAAALLKLMDHLVGGRQYAFMKGRLTINKKVVLEATEVSAYRRGTGLSDADWQQRYE | -1.97 |
| HMELVEVGDLTGLTVEQAENVLKNSNISISIDKYDESDKYEKDQIISQNPQNKKVKKGTAIHVVLSNGP | 0.0285 |
| HMKHKYWEIKERIKKDILNEVYKKGESIPSERDLAGIYDVTRVTVQKAMAMLVQEGYIERIHGKGMFVLKN | -0.801 |
| HMQQVIEGLDSDRDFITVPEAIALFAVGRQTLYHYIRSGKIPSVNLGQRLTRLSKKQLGELFPLR | -1.63 |
| HMSNETLFEFFEKNISQLTPTLVDNINRSLAVHSKKNVKLAIMIAAKSNVRNWNYISAILNRWEKE | -2.21 |
| HMKNESLMLPRDIDYSRVHGLSNEAIQKLQDALPQSLGQASRIEGITPATLSLLLLYLKKNNKRI | -0.00929 |
| HMFDDEELDRFAGVPADAYLPADEDEFREVFYTMRPGEVVEWVRSLELRHIEIPNGIKDEIFMMIR | -3.35 |
| HMSRAAQRLFMSQPPLSRHIRQLEDRLGVTLFVRHTRGLTLTEDGQRVLEMVRPLLDLQDKTYAALSQLT | 0.382 |
| HMGRENGTVKWFNTSKGFGFITRDDGGDVFVHFRSIQGEGHRALQEGQRVSYVVANRDKGLQAEDVTILN | 0.131 |
| HMIERKLRKKEHFIASVGEKVKIKNFATETYKGELISADNEKVVVETEFGKEEITYDNILAAATYFE | -0.135 |
| HMKNYYEVLGVPRDAAAPDIKRAFRKLAKQFHPDHNPGDAKAEERFKLVSQAYDVLGDEEKRKLYDQFGE | 0.173 |
| HMRLSVVDLQDSLRGLEYPAGKGDLINHAREHNASADVIAVLEQFSERTYRSAADVGEEFGRV | 0.111 |
| HMDSAQLARWAATILAQNGRKITPSTMNLFLERVGDDMENIRMELEKLISYTMGSEVVTAEDVKVITTVQ | -0.569 |
| HMSALIGAHTLERIDSRDFEGVVMAWLPKRDGYDSLYKIYHIEDGDFEELDDREVQAAISLFIEGT | -0.431 |
| HMTPVYLNARQKQILAFLKREEPAKVGDIAHALKTISINTLKKDLLYLRQKNLIESHGVLKGTIYTVK | -1.41 |
| HMKTEIGQAMRKLRKAKKMTQDTLAEKLGVAPANISRYEKGQQGIEVDKLPTLADALGVSVPEFFAIASG | 0.0437 |
| HMKPVTVINFVGMTEEKAMTEAEKLGLVVGASSSEYSDEPAGTVIRQSISVSTEAKTGDNIYFTVSKGPE | 0.163 |
